Article PMC10350922, “Allosteric Inhibitors of Macrophage Migration Inhibitory Factor (MIF) Interfere with Apoptosis-Inducing Factor (AIF) Co-Localization to Prevent Parthanatos”

Biological target: MIF (ZP307-labeled) (human, UniProt P14174 2-115)
Experiment: competition; competes with PA20-Q1, dose-dependent; 5 mM Mg2+; 100 mM Tris, 5 mM MgCl2, 5 mM KCl, pH 8.2; 1 uM labeled MIF, 1 uM PA20-Q1; inhibitor preincubation at rt
Conditions: protein: recombinant; tags: C-terminal His-tagged and untagged both made; chain copies: 3; single strand

Binder: AAAAAAAAAAAAAAAAAAAA (ssDNA) [PA20]
- binding result: binds
